The target in experiment [1] is T1, human B7-H4 on the cell surface (human, UniProt Q7Z7D3 25-282).
T1 sequence: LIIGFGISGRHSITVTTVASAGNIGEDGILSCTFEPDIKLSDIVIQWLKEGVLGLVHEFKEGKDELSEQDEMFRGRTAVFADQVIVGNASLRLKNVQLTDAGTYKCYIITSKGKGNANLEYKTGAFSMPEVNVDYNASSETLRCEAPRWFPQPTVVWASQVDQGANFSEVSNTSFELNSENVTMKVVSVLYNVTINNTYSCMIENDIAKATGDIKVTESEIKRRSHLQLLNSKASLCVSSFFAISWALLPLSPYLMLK
Kind of experiment: cell-based or functional assay.

Experiment [2] deals with T1, human B7-H4 on the cell surface. Kind of experiment: flow cytometry, SK-BR-3 cells.
Description: (§1) Following incubation, cells were pelleted, washed and incubated with a secondary labeling antibody and samples were acquired on a flow cytometer. Data was analyzed using the FlowJo software and MFI was plotted vs. antibody concentration. The EC50 cell binding potency was calculated using nonlinear regression curve fit (GraphPad Prism).
In experiment [3] the target is T2, recombinant human B7-H4-huIgG1 (human).
T2 construct: also called B7-H4-extracellular domain (ECD)
Kind of experiment: BLI, antigen on Protein A tips.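 Further: Anti-B7-H4 antibodies assessed for affinity toward the B7-H4 extracellular domain using biolayer interferometry.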
Description: (§2) Binding affinities of anti-B7-H4 antibodies to B7-H4-extracellular domain (ECD) were determined by biolayer interferometry (BLI). […] Anti-B7-H4 antibodies were then evaluated for binding.

Experiment [4] deals with T3, cynomolgus monkey B7-H4 (recombinant, BLI) (cynomolgus monkey, UniProt Q7Z7D3 25-259 (human entry)).
T3 construct: also called Cynomolgus B7-H4
T3 sequence: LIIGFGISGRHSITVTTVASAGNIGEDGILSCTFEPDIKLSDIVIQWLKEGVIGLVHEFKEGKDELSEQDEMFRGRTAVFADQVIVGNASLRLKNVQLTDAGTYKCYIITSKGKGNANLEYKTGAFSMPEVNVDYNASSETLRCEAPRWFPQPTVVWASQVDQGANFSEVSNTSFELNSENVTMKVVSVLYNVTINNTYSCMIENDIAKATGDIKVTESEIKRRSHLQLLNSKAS
Kind of experiment: BLI, antigen on Protein A tips.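 Further: Anti-B7-H4 antibodies assessed for affinity toward the B7-H4 extracellular domain using biolayer interferometry.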
Description: as §2

The target of experiment [5] is T4, mouse B7-H4 (recombinant, BLI) (mouse, UniProt Q7TSP5 29-256, limits assumed).
T4 construct: also called murine B7-H4
T4 sequence: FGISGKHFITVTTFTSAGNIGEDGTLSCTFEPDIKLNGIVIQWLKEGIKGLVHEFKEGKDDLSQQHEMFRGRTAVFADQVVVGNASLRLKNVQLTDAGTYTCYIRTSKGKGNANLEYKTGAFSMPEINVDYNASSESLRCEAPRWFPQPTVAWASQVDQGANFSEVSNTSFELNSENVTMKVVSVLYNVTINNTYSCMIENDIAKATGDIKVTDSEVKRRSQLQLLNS
Description: BLI, antigen on Protein A tips.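 Further: Anti-B7-H4 antibodies assessed for affinity toward the B7-H4 extracellular domain using biolayer interferometry.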
Description: as §2

For experiment [6], the target named is T5, mouse B7-H4 on the cell surface (mouse, UniProt Q7TSP5 25-257).
T5 construct: full-length, on transfected HEK293T cells
T5 sequence: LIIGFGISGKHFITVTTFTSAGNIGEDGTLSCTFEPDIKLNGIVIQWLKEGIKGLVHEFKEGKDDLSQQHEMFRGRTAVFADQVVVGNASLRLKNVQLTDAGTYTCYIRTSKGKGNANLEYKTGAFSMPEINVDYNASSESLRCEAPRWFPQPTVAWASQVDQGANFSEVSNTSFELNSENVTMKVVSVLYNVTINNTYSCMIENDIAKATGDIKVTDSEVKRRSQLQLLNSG
Kind of experiment: flow cytometry, transfected 293 cells.
Description: as §1

The next experiment deals with T6, B7-H4 IgV-huIgG1 (human).
T6 construct: also called N-terminal domain of human B7-H4
Kind of experiment: SPR, antibody captured by anti-human Fab, antigen in flow.

Experiment [7] concerns the target T1, human B7-H4 on the cell surface. Kind of experiment: cell-based or functional assay. This is another data set of the same source.

Numbering of substitutions follows the chain as printed. Like-named read-outs stand apart in the source and are kept apart here.

Description for B7-H4 IgV-huIgG1: Briefly, anti-human Fab antibody was immobilized on a carboxyl-derivatized SPR chip surface, and anti-B7-H4 antibodies were captured on the resulting surface at 5 ug/ml for 30 seconds.

B1: B7-H4 antibody 15489 (antibody, human IgG1, kappa, V domains shown)
VH: QVQLQESGPGLVKPSETLSLTCTVSGGSISSYYWSWIRQPPGKGLEWIGYIYSSGSTNYNPSLKSRVTISVDTSKNQFSLKLSSVTAADTAVYYCARGSGQYAAPDYGMDVWGQGTTVTVSS
VL: DIQMTQSPSTLSASVGDRVTITCRASQSISSWLAWYQQKPGKAPKLLIYKASSLESGVPSRFSGSGSGTEFTLTISSLQPDDFATYYCQQDNSFPFTFGGGTKVEIKR
notes: human IgG1/kappa
On to B1, for which, in experiment [1], the “Donor 1 Max IFNγ” value was found to be 82.5 pg/mL. In experiment [1], the “Donor 2 Max IFNγ” value came out at 96.6 pg/mL. Moreover, in experiment [1], the “Donor 3 Max IFNγ” value was found to be 1130 pg/mL. In addition, in experiment [1], the “Donor 4 Max IFNγ” value came out at 800 pg/mL. The “aAPC Assay EC50 (IFNγ production)” value in experiment [1] was found to be 291 nM. The EC50 is 31.7 nM in experiment [2] and 17.5 nM in experiment [6]. For the same molecule, the Kd in experiment [3] was determined as 63.7 nM; in experiment [4], 72.1 nM; in experiment [5], 201 nM; in the experiment with B7-H4 IgV-huIgG1, 23.7 nM.

B2: B7-H4 antibody 20516 (antibody, human IgG1, kappa, V domains shown)
VH: B1 VH with S30I, S35G, N58S, Q101L, M109L
VL: B1 VL
notes: human IgG1/kappa
As to B2, the “Donor 2 Max IFNγ” value in experiment [7] was determined as 441 pg/mL. In addition, in experiment [3], the Kd came out at 18 nM, the koff turned out to be 0.00738 s⁻¹ and the kon was determined as 410000 M⁻¹ s⁻¹. In experiment [4], the Kd was determined as 17.6 nM, the koff was 0.00783 s⁻¹ and the kon came out at 445000 M⁻¹ s⁻¹. In experiment [5], the Kd was determined as 41.4 nM, the koff was 0.0165 s⁻¹ and the kon was 398000 M⁻¹ s⁻¹.

B3: B7-H4 antibody 20513 (antibody, human IgG1, kappa, V domains shown)
VH: QLQLQESGPGLVKPSETLSLTCTVSGGSISDGSYYWSWIRQHPGKGLEWIGNIYYSGSTYYNPSLRSRVTMSVDTSKNQFSLKLSSVTAADTAVYYCARGLSTIDEAFDPWGQGTLVTVSS
VL: not shown
notes: human IgG1/kappa
In the case of B3, in experiment [7], the “Donor 1 Max IFNγ” value came out at 659 pg/mL, the “Donor 2 Max IFNγ” value is 240 pg/mL, the “Donor 3 Max IFNγ” value turned out to be 91.1 pg/mL and the “Donor 4 Max IFNγ” value turned out to be 1630 pg/mL. The “aAPC Assay EC50 (IFNγ production)” value in experiment [7] was determined as 1.16 nM. Moreover, in experiment [3], the equilibrium dissociation constant (Kd) is 3.98 nM, the koff was determined as 0.0018 s⁻¹ and the kon is 453000 M⁻¹ s⁻¹. In experiment [4], the dissociation constant (Kd) came to 3.67 nM, the koff came to 0.0018 s⁻¹ and the kon stood at 491000 M⁻¹ s⁻¹. Also, in experiment [5], the Kd was 4.57 nM, the koff was 0.00236 s⁻¹ and the kon was 517000 M⁻¹ s⁻¹.

B4: B7-H4 antibody 15483 (antibody, human IgG1, kappa, V domains shown)
VH: B3 VH with L2V, E16Q, D31S, S33G, R66K, M71I
VL: not shown
notes: human IgG1/kappa
Consider B4, for which, in experiment [1], the “Donor 1 Max IFNγ” value came to 93.2 pg/mL, the “Donor 2 Max IFNγ” value stood at 87.8 pg/mL, the “Donor 3 Max IFNγ” value was 1380 pg/mL and the “Donor 4 Max IFNγ” value was found to be 939 pg/mL. Further, the “aAPC Assay EC50 (IFNγ production)” value in experiment [1] came to 729 nM. The molecule further showed an EC50 in experiment [2] of 14.8 nM. The Kd in experiment [4] came to 108 nM. Besides, in experiment [5], the Kd was found to be 263 nM. This molecule also yielded an EC50 in experiment [6] of 8.82 nM. Further, the Kd in the experiment with B7-H4 IgV-huIgG1 was 18.4 nM.

B5: B7-H4 antibody 22216 (antibody, human IgG1, kappa, V domains shown)
VH: B3 VH with L2V, E16Q
VL: B1 VL with Q27K, K50E, E55H, F94Y, F96Y
notes: human IgG1/kappa
As for B5, in experiment [3], the Kd is 1.47 nM, the koff was 0.000359 s⁻¹ and the kon was found to be 245000 M⁻¹ s⁻¹. Moreover, in experiment [4], the Kd was found to be 1.47 nM, the koff was 0.000359 s⁻¹ and the kon was found to be 245000 M⁻¹ s⁻¹. Besides, in experiment [5], the Kd was 1.47 nM, the koff amounted to 0.000359 s⁻¹ and the kon is 245000 M⁻¹ s⁻¹.

B6: B7-H4 antibody 20506 (antibody, V domains shown)
VH: QLQLQESGPGLVKPSETLSLTCTASGGSISHGGYYWSWIRQHPGKGLEWIGNIYYSGSTYYNPSLKSRVTMSVDTSKNQFSLKLSSVTAADTAVYYCARESSTISADFDLWGRGTLVTVSS
VL: DIQMTQSPSSVSASVGDRVTITCRASQGISRWLAWYQQKPGKAPKLLIYAASSLQSGVPSRFSGSGSGTDFTLTISSLQPEDFATYYCQQAHTFPYTFGGGTKVEIKR
notes: human IgG1/kappa
Take B6: in experiment [7], the “Donor 1 Max IFNγ” value worked out at 981 pg/mL, the “Donor 2 Max IFNγ” value stood at 259 pg/mL, the “Donor 3 Max IFNγ” value came to 86.1 pg/mL and the “Donor 4 Max IFNγ” value came to 2300 pg/mL. Further, the “aAPC Assay EC50 (IFNγ production)” value in experiment [7] came to 1.25 nM. Besides, in experiment [3], the Kd was found to be 1.69 nM, the koff is 0.000746 s⁻¹ and the kon was determined as 441000 M⁻¹ s⁻¹. In addition, in experiment [4], the Kd came to 1.48 nM, the koff turned out to be 0.000678 s⁻¹ and the kon turned out to be 458000 M⁻¹ s⁻¹. In experiment [5], the Kd amounted to 3.53 nM, the off-rate constant (koff) turned out to be 0.00164 s⁻¹ and the kon came to 466000 M⁻¹ s⁻¹.

B7: B7-H4 antibody 20502 (antibody, V domains shown)
VH: QLQLQESGPGLVKPSETLSLTCTVSGGSIKSGSYYWGWIRQPPGKGLEWIGNIYYSGSTYYNPSLRSRVTISVDTSKNQFSLKLSSVTAADTAVYYCAREGSYPNQFDPWGQGTLVTVSS
VL: EIVMTQSPATLSVSPGERATLSCRASQSVSSNLAWYQQKPGQAPRLLIYGASTRATGIPARFSGSGSGTEFTLTISSLQSEDFAVYYCQQYHSFPFTFGGGTKVEIKR
notes: human IgG1/kappa
For the molecule B7, the Kd in experiment [3] came out at 1.2 nM; in experiment [4], 1.2 nM; in experiment [5] it was 3.4 nM; with B7-H4 IgV-huIgG1, 2.03 nM. Also, the koff worked out at 0.00115 s⁻¹ in experiment [3], 0.00112 s⁻¹ in experiment [4], 0.00213 s⁻¹ in experiment [5] and 0.000361 s⁻¹ in the experiment with B7-H4 IgV-huIgG1. Besides, the kon came out at 936000 M⁻¹ s⁻¹ in experiment [3], 962000 M⁻¹ s⁻¹ in experiment [4], 632000 M⁻¹ s⁻¹ in experiment [5] and 178000 M⁻¹ s⁻¹ with B7-H4 IgV-huIgG1.

B8: B7-H4 antibody 22208 (antibody, human IgG1, kappa, V domains shown)
VH: B7 VH with Y34H, R66K, I71M, Q106W
VL: B7 VL with S31T, G50D, T53A, A55V
notes: human IgG1/kappa
Consider B8, for which, in experiment [3], the Kd is 5.67 nM, the off-rate constant (koff) was found to be 0.00104 s⁻¹ and the kon was found to be 184000 M⁻¹ s⁻¹. Moreover, in experiment [4], the Kd came out at 5.44 nM, the koff was 0.00108 s⁻¹ and the kon was found to be 199000 M⁻¹ s⁻¹. In addition, in experiment [5], the Kd was 16.7 nM, the off-rate constant (koff) was determined as 0.00167 s⁻¹ and the kon was 99500 M⁻¹ s⁻¹.

The values above are taken from patent publication US20240043542A1 (published 2024).
